The values below come from US20240301052A1 (LANOVA MEDICINES DEVELOPMENT, published 2024).

A word on the EC50: it is the concentration needed to bring the measured effect to its halfway point. A lower EC50 goes with an effect from little substance.

Test [1] has as its target T1, human SLC34A2 (human, UniProt O95436 1-690).
T1 construct: whole, on cells; also called human solute carrier 34 A2; NaPi2b
T1 sequence (looked up): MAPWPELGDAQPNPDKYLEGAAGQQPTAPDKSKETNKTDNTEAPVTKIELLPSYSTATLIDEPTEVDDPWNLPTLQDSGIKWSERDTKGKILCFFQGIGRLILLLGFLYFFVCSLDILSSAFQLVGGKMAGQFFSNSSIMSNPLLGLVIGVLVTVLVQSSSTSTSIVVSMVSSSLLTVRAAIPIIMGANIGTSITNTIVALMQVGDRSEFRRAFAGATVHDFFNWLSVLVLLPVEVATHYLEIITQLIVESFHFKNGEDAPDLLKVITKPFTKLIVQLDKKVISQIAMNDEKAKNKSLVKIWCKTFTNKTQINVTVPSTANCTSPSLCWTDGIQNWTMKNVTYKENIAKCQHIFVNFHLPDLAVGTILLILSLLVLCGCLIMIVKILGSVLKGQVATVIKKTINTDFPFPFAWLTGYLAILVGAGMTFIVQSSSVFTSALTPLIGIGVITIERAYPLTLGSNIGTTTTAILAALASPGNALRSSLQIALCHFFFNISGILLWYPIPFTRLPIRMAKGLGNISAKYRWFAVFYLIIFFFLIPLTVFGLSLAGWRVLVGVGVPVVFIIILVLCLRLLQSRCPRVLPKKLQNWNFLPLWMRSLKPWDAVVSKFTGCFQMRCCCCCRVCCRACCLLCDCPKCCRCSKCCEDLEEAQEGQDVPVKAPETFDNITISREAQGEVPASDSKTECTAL
The experiment in a line: FACS, OVCAR3 cells. The protocol: In this example, cell based binding of chimeric antibodies (hIgG1) prepared from the murine antibodies on human SLC34A2 expressing cells were assessed using flow cytometry.
(§1) Briefly, OVCAR3 cells or HEK293 cells expressing human SLC34A2 were incubated with chimeric antibodies (from 200 nM, 4 folds dilution, 8 points). After incubation at 4° C. for 60 minutes, the cells were washed with FACS buffer twice, then stained with fluorescent conjugated secondary antibody at 4° C. for 30 minutes. After that the cells were washed twice and analyzed by flow cytometry.
(Flow cytometry measures light scatter and fluorescence of single cells or particles in a stream.)

Test [2] addresses T1, human SLC34A2. The experiment in a line: FACS, HEK293/human SLC34A2 cells. How it is done: as §1
Test [3] addresses T1, human SLC34A2. The experiment in a line: FACS, OVCAR3 cells. The source holds these as a separate data set.

Where a chain is given by its changes, count along the chain named.

B1: xi7G10E11 hIgG1 (antibody, V domains shown)
VH: DVKLVESGGGLIKLGGSLKLSCAASGFTFSGYYMSWFRQTPEKRLELVAVINSNGGSTYYAVTVKGRFTISRDNAKNTLYLQMSSLKSEDTALYYCARHEGSQAWFAHWGQGTLVTVSA
VL: DIVMTQSHKFMSTSVGDRVSITCKASQDVTTAVAWYQQKPGQSPKLLIYWASTRHTGVPDRFTGSGSGTDYTLTISSVQAEDLALYYCQQHHSTPLTFGAGTKLELK
notes: chimeric, hIgG1
For the molecule B1, in the test with human SLC34A2 [1], the EC50 worked out at 1.68 nM and the “Top (MFI)” value was 39600 MFI. In addition, in the test with human SLC34A2 [2], the midpoint of the response, the EC50, lay at 1.72 nM and the “Top (MFI)” value was 109000 MFI.

B2: xi67C9G11 hIgG1 (antibody, V domains shown)
VH: DVKLVESGGGLVKLGGSLKLSCAASGFTFSSYFMSWIRQTPEKRVDLVAVINSNGGSTYSPDTVKGRFTISRDNAKNTLYLQMTSLKSEDTALYYCARHFYSYDGAWFPYWGQGTLVTVSA
VL: B1 VL with S14L, T30S, A32S, Y71F, L96I, A100V
notes: chimeric, hIgG1
Regarding B2, the EC50 with human SLC34A2 [1] was found to be 4.67 nM; with human SLC34A2 [2] it was 2.82 nM. The figures for the “Top (MFI)” value with human SLC34A2 [1] and in the test with human SLC34A2 [2] were 41000 MFI and 107000 MFI, respectively.

B3: xi25B11B9 hIgG1 (antibody, V domains shown)
VH: DVKLVESGGGLVRLGGSLKLSCAASGFTFSSHYMSWVRQTPKKRLELVATINSSGGNTYYPDTVKGRFTISRDNARNTLFLQMTSLKSEDTALYYCARQPINTVAYFDYWGQGTTLTVSS
VL: B1 VL with K9E, D17A, V29L, T56I, T69A, H91Y
notes: chimeric, hIgG1
In the case of B3, in the test with human SLC34A2 [1], the response was half-maximal at 9.06 nM (EC50) and the “Top (MFI)” value was 42500 MFI. In the test with human SLC34A2 [2], the EC50 was found to be 2.51 nM and the “Top (MFI)” value was 106000 MFI.

B4: 63A11D5B4.p1.z6 hIgG1 (antibody, V domains shown)
VH: QVQLVQSGAEVKKPGASVKVSCKTSGYTFITYNMHWVRQAPGQGLEWIGAIYPGSGDTSYNQKFKGRVTMTADTSTSTVYMELSSLRSEDTAVYYCSISTIITTGAVDYWGQGTLVTVSS
VL: DIQMTQSPSSLSTSVGDRVTITCKASQDVGTAVAWYQQKPGKSPKLLIYWTSTRHTGVPSRFSGSGSGTDFTLIISSLQPEDVATYYCQQYSRIPLTFGGGTKVEIK
notes: humanized hIgG1
Regarding B4, in the test with human SLC34A2 [3], the EC50 worked out at 36.8 nM and the “Top (MFI)” value was 34600 MFI.

B5: 63A11D5B4.p1.z13 hIgG1 (antibody, V domains shown)
VH: B4 VH with V5Q, K12V, V20M, R38K, L45R, V68A, M70L, T74K, V79A, L115S
VL: B4 VL with T13A, S43V, I74T
notes: humanized hIgG1
Take B5: in the test with human SLC34A2 [3], the response was half-maximal at 16.4 nM (EC50) and the “Top (MFI)” value is 32600 MFI.

B6: 63A11D5B4.p1.z16 hIgG1 (antibody, V domains shown)
VH: B4 VH with V5Q, K12V, V20M, R38K, L45R, V68A, M70L, T74K, V79A, L115S
VL: B4 VL with Q3V, K42Q, S60D, S63T, S76R, Y87F, G100S
notes: humanized hIgG1
With B6, in the test with human SLC34A2 [3], it took 11.4 nM to reach a half-maximal effect (EC50) and the “Top (MFI)” value came to 29500 MFI.

B7: 63A11D5B4.p1.z14 hIgG1 (antibody, V domains shown)
VH: B4 VH with V5Q, K12V, V20M, R38K, L45R, V68A, M70L, T74K, V79A, L115S
VL: B4 VL
notes: humanized hIgG1
As to B7, in the test with human SLC34A2 [3], the midpoint of the response, the EC50, lay at 16.1 nM and the “Top (MFI)” value stood at 32600 MFI.

B8: 63A11D5B4.p1.z2 hIgG1 (antibody, V domains shown)
VH: B4 VH with T24A, I48M, A72R, S97A, I98S
VL: B4 VL
notes: humanized hIgG1
In the case of B8, in the test with human SLC34A2 [3], the EC50 was found to be 20.6 nM and the “Top (MFI)” value stood at 28700 MFI.

B9: 63A11D5B4.p1.z8 hIgG1 (antibody, V domains shown)
VH: B4 VH
VL: B4 VL with Q3V, K42Q, S60D, S63T, S76R, Y87F, G100S
notes: humanized hIgG1
For B9, in the test with human SLC34A2 [3], the response was half-maximal at 14.2 nM (EC50) and the “Top (MFI)” value worked out at 27900 MFI.

B10: 63A11D5B4.p1.z7 hIgG1 (antibody, V domains shown)
VH: B4 VH
VL: B4 VL with K42Q, S60D, S76R, Y87F
notes: humanized hIgG1
Regarding B10, in the test with human SLC34A2 [3], the EC50 is 61.1 nM and the “Top (MFI)” value amounted to 41000 MFI.

B11: 63A11D5B4.p1.z10 hIgG1 (antibody, V domains shown)
VH: B4 VH with K12V, V20M, M70L, T74K, V79A
VL: B4 VL
notes: humanized hIgG1
Consider B11, for which, in the test with human SLC34A2 [3], the EC50 amounted to 12.3 nM and the “Top (MFI)” value was 29800 MFI.

B12: 63A11D5B4.p1.z1 hIgG1 (antibody, V domains shown)
VH: B4 VH with T24A, I48M, A72R, S97A, I98S
VL: B4 VL with T13A, S43V, I74T
notes: humanized hIgG1
B12: in the test with human SLC34A2 [3], the EC50 stood at 19.6 nM and the “Top (MFI)” value came to 28000 MFI.

B13: 63A11D5B4.p1.z11 hIgG1 (antibody, V domains shown)
VH: B4 VH with K12V, V20M, M70L, T74K, V79A
VL: B4 VL with K42Q, S60D, S76R, Y87F
notes: humanized hIgG1
For B13, in the test with human SLC34A2 [3], the EC50 came out at 10.3 nM and the “Top (MFI)” value is 27700 MFI.

B14: 63A11D5B4.p1.z12 hIgG1 (antibody, V domains shown)
VH: B4 VH with K12V, V20M, M70L, T74K, V79A
VL: B4 VL with Q3V, K42Q, S60D, S63T, S76R, Y87F, G100S
notes: humanized hIgG1
B14: in the test with human SLC34A2 [3], the midpoint of the response, the EC50, lay at 11.7 nM and the “Top (MFI)” value worked out at 31700 MFI.

B15: 63A11D5B4.p1.z3 hIgG1 (antibody, V domains shown)
VH: B4 VH with T24A, I48M, A72R, S97A, I98S
VL: B4 VL with K42Q, S60D, S76R, Y87F
notes: humanized hIgG1
For B15, in the test with human SLC34A2 [3], the EC50 turned out to be 17.9 nM and the “Top (MFI)” value turned out to be 28600 MFI.

B16: 63A11D5B4.p1.z4 hIgG1 (antibody, V domains shown)
VH: B4 VH with T24A, I48M, A72R, S97A, I98S
VL: B4 VL with Q3V, K42Q, S60D, S63T, S76R, Y87F, G100S
notes: humanized hIgG1
For B16, in the test with human SLC34A2 [3], the EC50 turned out to be 18.1 nM and the “Top (MFI)” value is 29000 MFI.

B17: xi62C10B3D2 hIgG1 (antibody, V domains shown)
VH: QVHQQQSGPELVKPGASVRISCKASGYTFTSYYIHWVKQRPGQGLEWIGCIYPGNLFTKYNEKFKDKATLTADTSSTTAYMHLSSLTSEDSAVYFCARFLNWNAWYFDVWGAGTTVSVSS
VL: DVLMTQTPLSLPVSLGDQASISCRSSQSIEHSNGNTNLEWYLQKPGQSPRLLIYKVSNRFSGVPDRFSGSGSGTDFTLKITGVEAEDLGVYYCFQGSHFPWTFGGGTKLEIK
notes: chimeric, hIgG1
As to B17, the EC50 was determined as 408 nM with human SLC34A2 [1] and 378 nM in the test with human SLC34A2 [2]. In addition, the “Top (MFI)” value with human SLC34A2 [1] was 29500 MFI; in the test with human SLC34A2 [2] it was 128000 MFI.
